Results: the supplement of paper PMC9170038

Tested on: MS2 coat protein
Assay: apparent KD of MS2 coat protein; designed switch direction (-1 OFF switch, 1 ON switch): -1; higher = weaker reporter binding
Summary of the method: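 Three titration conditions were used: no input, 200 uM small-molecule ligand, and an oligonucleotide input. In each, SNAP-549-labelled MS2 coat protein was raised from 0.7 or 1.5 nM, doubling, to 3 µM over designed RNA switches transcribed on Illumina chips by stalled E. coli RNA polymerase. Curve fits of normalised cluster fluorescence gave values whose per-design median over clusters is the apparent KD.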

[1] = input ligand: microRNA oligo, concentration not stated
[2] = Eterna round: R95, input ligand: FMN 200 uM
[3] = Eterna round: R95, input ligand: microRNA oligo, concentration not stated
[4] = Eterna round: R95, input ligand: none

## ACGCUACAUGAGGAUCACCCAUGUGAGGAUAUUUGAUCCAGGCAGCAAAGGAUGAUACGGAGAAGGUACAUGGU [Eternabot (L1) Solution 35] (Eterna round: R97, puzzle: Exclusion 1)
Input ligand: FMN 200 uM
  apparent KD of MS2 coat protein: 265 nM
Input ligand: none
  apparent KD of MS2 coat protein: 147 nM

## ACGGACUGAGGAUAUGCAUGCAGGAUACCUUAGUCCAAGGGACAUGAGGAUCACCCAUGUAGAAGGCGGAAAUA [Riedzaanor] (Eterna round: R97, puzzle: Exclusion 2)
Input ligand: FMN 200 uM
  apparent KD of MS2 coat protein: 26.1 nM
Input ligand: none
  apparent KD of MS2 coat protein: 26.5 nM

## ACGUACUCUGUAGGAUAUCGAUGAUGCAUGAUUCGAGAAGGACAUGAGGAUCACCCAUGUUUCAAAAGCAUACUAUGUGUAGUA [Design #2] (Eterna round: R96, puzzle: Exclusion NG 1)
Input ligand: FMN 200 uM
  apparent KD of MS2 coat protein: 44.4 nM
[1]
  apparent KD of MS2 coat protein: 13.6 nM
Input ligand: none
  apparent KD of MS2 coat protein: 20.9 nM

## ACUCGCACUGUAAGGAUAUGCAAUUACGAAAGUGAGCAGAAGGUACAUGAGGAUCACCCAUGUGCGAAUCAGUG [Eternabot (Original) Solution 36] (Eterna round: R97, puzzle: Brourd's mod of Exclusion 4)
Input ligand: FMN 200 uM
  apparent KD of MS2 coat protein: 18.9 nM
Input ligand: none
  apparent KD of MS2 coat protein: 20 nM

## ACUGGUCGAGGAUAUGCAAUCGUGCUUCGGCACGUAAGAUCACAUGAGGAUCACCCAUGUAGAAGGCGACCAGU [E2/3-A2] (Eterna round: R97, puzzle: Exclusion 2)
Input ligand: FMN 200 uM
  apparent KD of MS2 coat protein: 81.7 nM
Input ligand: none
  apparent KD of MS2 coat protein: 21.2 nM

## ACUGGUGCAGGAUAUACAAUCGUGCUUCGGCACGUAAGGUCACAUGAGGAUCACCCAUGUAGAAGGGCACCAGU [E2/2-D1] (Eterna round: R97, puzzle: Exclusion 2)
Input ligand: FMN 200 uM
  apparent KD of MS2 coat protein: 177 nM
Input ligand: none
  apparent KD of MS2 coat protein: 26.2 nM

## ACUGGUGCAGGAUAUGCAAUCGUGCUUCGGCACGUAAGGUCACAUGAGGAUCACCCAUGUAGAAGGGCACCAGU [E2/4-D1] (Eterna round: R97, puzzle: Exclusion 2)
Input ligand: FMN 200 uM
  apparent KD of MS2 coat protein: 33.2 nM
Input ligand: none
  apparent KD of MS2 coat protein: 12.6 nM

## ACUUAUAGAGGAUAUACAGUUAAUUACAUGAGGAUCACCCAUGUUCUUCAAUGUAUAUAAGUAGAAGGCUAAAGGA [Mat - Exclusion 5 - Eli Mod - D6] (Eterna round: R97, puzzle: Exclusion 5)
Input ligand: FMN 200 uM
  apparent KD of MS2 coat protein: 198 nM
Input ligand: none
  apparent KD of MS2 coat protein: 19.3 nM

## ACUUAUUGAGGAUAUACAGAAAAUUACAUGAGGAUCACCCAUGUUCUUCAAUGUAUAUAUGUAGAAGGCAGAAGAA [JL-ex5-4.26 Malcolm mod] (Eterna round: R97, puzzle: Exclusion 5)
Input ligand: FMN 200 uM
  apparent KD of MS2 coat protein: 29.3 nM
Input ligand: none
  apparent KD of MS2 coat protein: 12.9 nM

## ACUUAUUGAGGAUAUACAGAUUAUUACAUGAGGAUCACCCAUGUUCUUCAAUGUAUAUAUGUAGAAGGCAGAAGAA [JL-ex5-4.25 Malcolm mod] (Eterna round: R97, puzzle: Exclusion 5)
Input ligand: FMN 200 uM
  apparent KD of MS2 coat protein: 179 nM
Input ligand: none
  apparent KD of MS2 coat protein: 56.7 nM

## ACUUGUUGUCCUUGAUAUUACAUGAGGAUCACCCAUGUUAUUGUGAUUAUGAUGUGUAAGUUUGUUGCUCGUUUUAU [JR_STOV1_Sub066] (Eterna round: R97, puzzle: Sensor, turn-off variant 1)
Input ligand: FMN 200 uM
  apparent KD of MS2 coat protein: 84.7 nM
Input ligand: none
  apparent KD of MS2 coat protein: 84 nM

## AGAAAAGCCCAUGACCGCAAGCUUUUUGCUUGUCUUACCACAUGAGGAUCACCCAUGUGACAUGGGCUCCUUAUAAU [Atcein] (puzzle: Sensor v3, turn-off variant 2)
[2]
  apparent KD of MS2 coat protein: 13.2 nM
[3]
  apparent KD of MS2 coat protein: 10.2 nM
[4]
  apparent KD of MS2 coat protein: 11.1 nM

## AGAAAGCAAGGAUAUACAAGUAAACGACGGAAAGUAGAGAGACAUGAGGAUCACCCAUGUAGAAGGUGCGAGAG [JR_Exclu2_Sub034] (puzzle: Exclusion 2)
[2]
  apparent KD of MS2 coat protein: 24.7 nM
[3]
  apparent KD of MS2 coat protein: 26.1 nM
[4]
  apparent KD of MS2 coat protein: 26.2 nM

## AGAAAUCUGUAGGAUAUGUUGAACACCGUGUACACAGAAGGGCAGACAUGAGGAUCACCCAUGUGGUGGGCCAG [Eternabot (L1) Solution 91] (Eterna round: R97, puzzle: Exclusion 6)
Input ligand: FMN 200 uM
  apparent KD of MS2 coat protein: 576 nM
Input ligand: none
  apparent KD of MS2 coat protein: 469 nM

## AGAAAUGCCCAUGGCCGCAAGCUUUUCGCUUGUCUUACCACAUGAGGAUCACCCAUGUGACAUGGGCUCCUUAUAAU [Usdigeor] (puzzle: Sensor v3, turn-off variant 2)
[2]
  apparent KD of MS2 coat protein: 12.3 nM
[4]
  apparent KD of MS2 coat protein: 12 nM

## AGAAGUAGCAACCGAUCCUACAUGAGGAUCACCCAUGUAGCAAGACGUGCACGCGAAGCUCGUCAGACUACCAGAUG [salish99_TOv1_r3_022] (puzzle: Sensor v3, turn-off variant 1)
[2]
  apparent KD of MS2 coat protein: 216 nM
[3]
  apparent KD of MS2 coat protein: 210 nM
[4]
  apparent KD of MS2 coat protein: 168 nM

## AGAAGUAGUAACCGAUCCUACAUGAGGAUCACCCAUGUAGCGAGACGUGCACGCGAAGCUCGUCAGACUACCAGAUG [salish99_TOv1_r3_025] (puzzle: Sensor v3, turn-off variant 1)
[2]
  apparent KD of MS2 coat protein: 138 nM
[3]
  apparent KD of MS2 coat protein: 139 nM
[4]
  apparent KD of MS2 coat protein: 159 nM

## AGAAGUAUAGGAUAUACGUCUGCGCACAUGAGGAUCACCCAUGUCGUGUUCCGUGGCAGAGUAGAAGGGUACGGAC [EX5 B.11] (Eterna round: R97, puzzle: Exclusion 5)
Input ligand: FMN 200 uM
  apparent KD of MS2 coat protein: 305 nM
Input ligand: none
  apparent KD of MS2 coat protein: 219 nM

## AGAGAAUACUCAGGAUAUCUGAAUAGAAAGAGAAGAGAAGGGAGACAUGAGGAUCACCCAUGUGAAGUCUUGAGACUACAUGGU [Prohibition 27 - Jieux - Exclusion NG 1] (Eterna round: R96, puzzle: Exclusion NG 1)
[1]
  apparent KD of MS2 coat protein: 225 nM

## AGAGUGCUGCGAGGAUAUACAUGAGGAUCACCCAUGUUUUCCUGUGAGGCAAAGCCUCACAGGAUGUAGAAGGCGCAGUACUCA [Mat - Exclusion NG 2 - Mod of JL - D39] (Eterna round: R96, puzzle: Exclusion NG 2)
Input ligand: FMN 200 uM
  apparent KD of MS2 coat protein: 13.9 nM
[1]
  apparent KD of MS2 coat protein: 11.1 nM
Input ligand: none
  apparent KD of MS2 coat protein: 17.7 nM

## AGAGUGCUGCGAGGAUAUACAUGAGGAUCACCCAUGUUUUCCUGUGAGGCUUUGCCUCACAGGAUGUAGAAGGCGCAGUACUCA [Mat - Exclusion NG 2 - Mod of JL - D38] (Eterna round: R96, puzzle: Exclusion NG 2)
Input ligand: FMN 200 uM
  apparent KD of MS2 coat protein: 9.32 nM
[1]
  apparent KD of MS2 coat protein: 9.65 nM
Input ligand: none
  apparent KD of MS2 coat protein: 13.1 nM

## AGAGUGUGAGGAUAUAUGGUGCAGAUGAAGGGAUAGAAGGAGUAGAAGGUACAUGAGGAUCACCCAUGUUAGGA [JR_Exclu4_Sub077] (puzzle: Exclusion 4)
[3]
  apparent KD of MS2 coat protein: 25.5 nM

## AGAUAUCUAGGAUAUGCGUCGCGGAGGACUCCGAAGGGAGGACAUGAGGAUCACCCAUGUAGAAGGAGACAUUG [Eternabot (L2) Solution 38] (Eterna round: R97, puzzle: Exclusion 2)
Input ligand: FMN 200 uM
  apparent KD of MS2 coat protein: 46 nM
Input ligand: none
  apparent KD of MS2 coat protein: 45 nM

## AGAUCACAUGAGGAUCACCCAUGUGAGGAUAUAGAUUCAAGAGCUUCGGCUCUACAGUCUAGAAGGCACUAUGA [EX1 #46] (Eterna round: R97, puzzle: Exclusion 1)
Input ligand: FMN 200 uM
  apparent KD of MS2 coat protein: 30.4 nM
Input ligand: none
  apparent KD of MS2 coat protein: 25.7 nM

## AGAUCACAUGAGGAUCACCCAUGUGAGGAUAUGAUACUAUGUACUUCGGUACAUAGUAUCAGAAGGCGCGUGAA [Ex1-3: 72] (puzzle: Exclusion 1)
[3]
  apparent KD of MS2 coat protein: 28.5 nM

## AGAUCCACCGAGGAUAUUGGAGUGAUAUCACUCUAAGAAGGCGGUACAUGAGGAUCACCCAUGUGAUACCCAGA [Eternabot (Original) Solution 15] (Eterna round: R97, puzzle: Exclusion 6)
Input ligand: FMN 200 uM
  apparent KD of MS2 coat protein: 551 nM
Input ligand: none
  apparent KD of MS2 coat protein: 316 nM

## AGAUCGUCAGGAUAUACAUGAGGAUCACCCAUGUAUAGUCUAAAUUUGACUAUAAGAUGUAGAAGGGACGAUCG [Exclusion 3 (MOD5 of #1 Marzena11)] (Eterna round: R97, puzzle: Exclusion 3)
Input ligand: FMN 200 uM
  apparent KD of MS2 coat protein: 75.8 nM
Input ligand: none
  apparent KD of MS2 coat protein: 21.4 nM

## AGAUCUAGGACAGGAUAUACAGAUGGCUUCAUCGAAGAUGAAGCCAUUACAUGAGGAUCACCCAUGUAGAAGGGUCCUAGAUCA [Omei Exc(NG) 2Av5] (Eterna round: R96, puzzle: Exclusion NG 2)
Input ligand: FMN 200 uM
  apparent KD of MS2 coat protein: 17.7 nM
[1]
  apparent KD of MS2 coat protein: 12 nM
Input ligand: none
  apparent KD of MS2 coat protein: 14.2 nM

## AGAUCUAGGACAGGAUAUACGGAUGUCUUCAUCGAAGAUGAAGACAUUACAUGAGGAUCACCCAUGUAGAAGGGUCCUAGAUCA [Omei Exc(NG) 2Av1] (Eterna round: R96, puzzle: Exclusion NG 2)
Input ligand: FMN 200 uM
  apparent KD of MS2 coat protein: 13.8 nM
[1]
  apparent KD of MS2 coat protein: 10.6 nM
Input ligand: none
  apparent KD of MS2 coat protein: 13.1 nM

## AGAUCUAGGACAGGAUAUAUAGAUGGCUUCAUCGAAGAUGAAGCCAUUACAUGAGGAUCACCCAUGUAGAAGGGUCCUAGAUCA [Omei Exc(NG) 2Av7] (Eterna round: R96, puzzle: Exclusion NG 2)
Input ligand: FMN 200 uM
  apparent KD of MS2 coat protein: 11.2 nM
[1]
  apparent KD of MS2 coat protein: 14.3 nM
Input ligand: none
  apparent KD of MS2 coat protein: 16.1 nM
